Variants at the floor of the assay were thinned out.
B1: TPR 5TU (parent)
chain: GGAUCUUCUCGAUCUAACAAAAAAGACAAAUCUGCCACAAAGCUUGAGAGCAUCUUCGGAUGCAGAGGCGGCAGCCUUCGGUGGCGCGAUAGCGCCAACGUUCUCAACUAUGACACGCAAAACGCGUGCUCCGUUGAAUGGAGUUUAUCAUG

Variants of: B1
Assay: polymerase ribozyme fitness, log enrichment relative to wild type (log ratio); higher = more active; in vitro selection for triplet polymerase activity
In short: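 Each subunit of a heterodimeric triplet polymerase ribozyme was mutagenized into a library by PCR, transcribed, and subjected to one round of in vitro selection, run in triplicate. Libraries were annealed with a biotinylated primer, the partner subunit and triplets, incubated frozen at −7 °C, and extended constructs were gel-excised, captured on streptavidin beads and recovered by RT-PCR. Input and output libraries were sequenced on Illumina, keeping genotypes with ≥10 input reads and ≥1 read per output. Fitness is log base 2 of genotype enrichment divided by wild-type enrichment, from inverse-variance-weighted replicate averages.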

Question: For GGAUCUUCUCGAUCUAACAAAAAAGACAAAUCUACCACAAAGCUUGAGAGCAUCUUCGGAUGCAGAGGCGGCAGCCUUCGGUGGUGCGAUAGCGCCAACGUUCUCAACUAUGACACGCAAAACGCGUGCUCCGUUGAAUGGAGUUUCGCAUU, which “polymerase ribozyme fitness (log ratio)” value is on record?
Answer: ≤ -4.2

Question: Which “polymerase ribozyme fitness (log ratio)” value does the source give for GGAUCUUCUCGAUCUAACAAAAAAGACAAAUCUACCACUAAGCUUGAGAGCAUCUUCGGAUGCAGAGGCGGCAGCCUUCGGUGGCGCGAUAGCGCAAACGUUCUCAACUAUGACACGCAAAACGCGUGCUCCGUCGAAUCGAGUUUAUCAUG here?
Answer: ≤ -4.2

Question: Which “polymerase ribozyme fitness (log ratio)” value does the source give for GGAUCUUCUCGAUCUAACAAAAAAGACAAAUCUACCACAAAGCUUGAGAGCAUCUUCGGAUGCAGAGGCGGCAGCCUUCGGUGGCGCGAUAGAGCCAACGUUCUCAACUAUGACACGCAAAACGCGUGCUCCGUUGAAUGGAGUUUAUCAUG here?
Answer: -3.6

Question: Which “polymerase ribozyme fitness (log ratio)” value does the source give for GGAUCUUCUCGAUCUAACAAAAAAGACAAAUCUCCCACAAAGCUUGAGAUCAUAUUCGGAUGCAGAGGCGGCAGCCUUCGGUGGCGCGAUAGCUCCAAUGUUCUCAACUAUGACACGCAAAACGCGUGCUCCGUUGAAUGGAGUUUAUCAUG here?
Answer: ≤ -4.2

Question: Which “polymerase ribozyme fitness (log ratio)” value does the source give for GGAUCUUCUCGAUCUAACAAAAAAGACAAAUCUCCCACAAAGCUUGAGAGGAUCUUUGGAUGCAGAGGCGGCAGCCUUCGGUCGCGCGAUAGCGCCAACGUUCUCAACUAUGACACGCAAAACGCGUGCUCCGUUGAAUGGAGUUUAUCAUG here?
Answer: ≤ -4.2

Question: With GGAUCUUCUCGAUCUAACAAAAAAGACAAAUCUACCACAAAGCUUGAGAGCAUCUUCGGAUGCAGAGGCGGCAGCCUUCGGUGGCGCGAUAGCGCCAACGAUCUCAACUAUGACACGCAAAACGCGUGCUCCGUUGAAUGGAGUUUAUCAUG as the variant, how does the “polymerase ribozyme fitness (log ratio)” value read?
Answer: -2.82

Question: Which “polymerase ribozyme fitness (log ratio)” value does the source give for GGAUCUUCUCGAUCUAACAAAAAAGACAAAUCGGCCACAAAGCUUGAGAGCAUCUACGGAUGCAGAGGUGGCAGCCUUCGGUGGCGGGAUAGCGCCAACGCUCUCAACUAUGACACGCAAAACGCGUGCUCCGUUGAAUGGAGUUUAUCAUG here?
Answer: ≤ -4.2

Question: Which “polymerase ribozyme fitness (log ratio)” value does the source give for GGAUCUUCUCGAUCUAACAAAAAAGACAAAUCUACCACAAAGCUUGAGAGCAUCUUCGGAUGCAGAGGCGGCAGCCUUCGGUGGAGCGAUAGCGCCAACGUUCUCAACUAUGACACGCAAAACGCGUGCUCCAUUGAAUGGAGUUUAUCAUG here?
Answer: ≤ -4.2

Question: With GGAUCUUCUCGAUCUAACAAAAAAGACAAAUCUACCACAAAGCUUGAGAGCAUCUUCGGAUGCAGAGGCGGCAGCCUUCGGUGACGCGAUAGCGGCAACGUUCUCAACUAUGACACGCAAAACGCGUGCUCCGUUGAAUGGAGUUUAUCAUG as the variant, how does the “polymerase ribozyme fitness (log ratio)” value read?
Answer: -0.00509

Question: For GGAUCUUCUCGAUCUAACAAAAAAGACAAAUCUACCACAAAGCUUGAGAGCAUCAUCGGAUGCAGAGGCUGCAGCCUUCUGUGGCACGAUAGCGCCAACGUUCUCAACUAUGACACGCAAAACGCGUGCUCCGUUGAAUGGAGUUUAUCAUG, which “polymerase ribozyme fitness (log ratio)” value is on record?
Answer: ≤ -4.2

Question: Which “polymerase ribozyme fitness (log ratio)” value does the source give for GGAUCUUCUCGAUCUAACAAAAAAGACAAAUCUCCCACAAAGCUUGAGAGCAUCUUCGGAUGCAGAGGCGGCAGCCUUCGGUGGCGUGAUAGCGCCAACGUUCUCAACUAUGACACGCAAAACGCGUGCUCCGUUGAAUGGAGUUUAUCAUG here?
Answer: -3.33

Question: With GGAUCUUCUCGAUCUAACAAAAAAGACAAAUCUACCACAAAGCUUGAGAGCAUCUUCGGAUGCAGAGGCGGCAGCCUUCGGUGGCGCGAUAGCGCCAACGUUCUCAACUAUGACACGCACAACGCGUGCUCCGUUGAAUGGAGUUUAUCAUG as the variant, how does the “polymerase ribozyme fitness (log ratio)” value read?
Answer: 0.113

Question: For GGAUCUUCUCGAUCUAACAAAAAAGACAAAUCUACGACAAAGCUUGAGAGCAUCUUCGGAUGCAGAGGGGGCAGCAUUCGGUGGCGCGAUAGCGGCAACGUUCUCAACUAUAACACGCAAAACGCGUGCUCCGUUGAAUGGAGUUUAUCAUG, which “polymerase ribozyme fitness (log ratio)” value is on record?
Answer: ≤ -4.2

Question: For GGAUCUUCUCGAUCUAACAAAAAAGACAAAUCUACCACAAAGCUUGUGAACAUCUUCGGAUGUAGAGGCGGCAGCCUUCGGUGGCGCGAUAGCGCCAACGUUCUCAACUAUGACACGCAAAACGCGUGCUCCGUUGAAUGGAGUUUAUCAUG, which “polymerase ribozyme fitness (log ratio)” value is on record?
Answer: -2.2

Question: For GGAUCUUCUCGAUCUAACAAAAAAGACAAAUCUCCCACAAAGCUUGAGAGCAUCUUCGGAUGCAGAGGCGGCAACCUUCGGUGGCGCGAUAGCGCCAACGUUCUCAACAAUGACACGCAAAAUGCGUGCUCCGUUGAAUGGAGUUUAUUAUG, which “polymerase ribozyme fitness (log ratio)” value is on record?
Answer: ≤ -4.2

Question: Which “polymerase ribozyme fitness (log ratio)” value does the source give for GGAUCUUCUCGAUCUAACAAAAAAGACAAAUCUCCCACAAAGCUUGAGAGCAUCUUCGGAUGCAGAGGCGGCAGCCUUCGGUGGCGCUAUAGCGCCAACGUUCUCAACUAUGACACGCAAAACGCGUGCUCCGUUGAAUGGAGAUUAUCAUG here?
Answer: ≤ -4.2

Question: Which “polymerase ribozyme fitness (log ratio)” value does the source give for GGAUCUUCUCGAUCUAACAAAAAAGACAAAUCGGCCACAAAGCUUGAGAGCAUCUUCGGAUGCAGAGGCGGCAGCCUUCGGUGGCGCGAUAGCACCAACGUUCUCAACUAUGACACGCAAAAGGCGUGCUCCGUUAAAUGGAGUUUAUCAUG here?
Answer: ≤ -4.2

Question: Which “polymerase ribozyme fitness (log ratio)” value does the source give for GGAUCUUCUCGAUCUAACAAAAAAGACAAAUCGGCCACAAAGCUUGAGAGCAUCUUCCGAUGCAGAGGCGGCAGCCUUCGGUGGCGCGAUAGCGCCAACGUUCUCAACUAUGACACGCAGAACGCGUGCUCCCUUGAAUGGAGUUUAUCAUG here?
Answer: -3.81

Question: For GGAUCUUCUCGAUCUAACAAAAAAGACAAAUCUACCACAAAGCUUGAGAGCAUCUUCGGGUGCAGAGGCGGCAGCCUUCGGUGGCGCGAUAGCACCAACGUUCUCAACUAUGACACGCAAAACGCGUGCUCCGUUGAAUGGAGUUUGUCCUG, which “polymerase ribozyme fitness (log ratio)” value is on record?
Answer: ≤ -4.2

From the RNAGym collection of RNA variant scans (doi:10.1073/pnas.2313332121)
